Measurements taken from patent US7329737 (DYAX, dated 2008).

Biological target: T1, hK1 (human tissue kallikrein 1), recombinant (human, UniProt P06870 25-262)
T1 construct: Expressed in P. pastoris from KLK1 cDNA and purified; enzymatically active; also called KLK1; Recombinant (Pichia) Kallikrein
Assay: SPR

Kd | koff | kon | Binder
32.6 nM | 0.0158 s⁻¹ | 484000 M⁻¹ s⁻¹ | M0115-F08 (Fab, V domains shown) VH: EVQLLESGGGLVQPGGSLRLSCAASGFTFSHYVMVWVRQAPGKGLEWVSSIYPSGGMTVYADSVKGRFTISRDNSKNTLYLQMNSLRAEDTAVYYCARRGIANSFNIWGQGTMVTVSS VL: AQSELTQPASVSGSPGQSITISCTGTSSDVGGYNYVSWYQQHPGKAPKLMIYEVSNRPSGVSNRFSGSKSGNTASLTISGLQAEDEADYYCSSYTSSSTWVFGGGTKLTVLG
36.4 nM | 0.00884 s⁻¹ | 243000 M⁻¹ s⁻¹ | M0103-E09 (Fab, V domains shown) VH: EVQLLESGGGLVQPGGSLRLSCAASGFTFSHYSMLWVRQAPGKGLEWVSSIRPSGGFTKYADSVKGRFTISRDNSKNTLYLQMNSLRAEDTAVYYCARRGVWDAFDIWGQGTMVTVSS VL: AQYELTQPASVSGSPGQSITISCTGTNTDVGGYNFVSWYQQYPGKAPKLIIFDVTNRPSGVSNRFSGSKSGNTASLTISGLQAEDEADYYCCSYTNTNTLVFAGGTKVTVLG
31.8 nM | 0.0871 s⁻¹ | 2.74e+06 M⁻¹ s⁻¹ | M0118-E07 (Fab, V domains shown) VH: EVQLLESGGGLVQPGGSLRLSCAASGFTFSHYPMDWVRQAPGKGLEWVSRIYPSGGATKYADSVKGRFTISRDNSKNTLYLQMNSLRAEDTATYYCARGGGAFDIWGQGTMVTVSS VL: DIQMTQSPSSLSASVGDRVTITCRASQGISNYLAWYQQKPGKVPKLLIYAASTLQSGVPSRFSGSGSGTDFTLTISSLQPEDVATYYCQKYNSAPLTFGGGTKVEIKR
35.4 nM | 2.62 s⁻¹ | 7.39e+07 M⁻¹ s⁻¹ | M0102-C12 (Fab, V domains shown) VH: EVQLLESGGGLVQPGGSLRLSCAASGFTFSHYLMGWVRQAPGKGLEWVSVIWPSGGITKYADSVKGRFTISRDNSKNTLYLQMNSLRAEDTAVYYCARGNGGFDSWGQGTLVTVSS VL: DIQMTQSPSSLSASVGDRVTITCRASQGISNYLAWYQQKPGKVPKLLIYAASTLQSGVPSRFSGSGSGTDFTLTISSLQPEDVATYYCQKYNSAPWTFGQGTKVEIKR
31.5 nM | 500 s⁻¹ | – | M0113-E03 (Fab, V domains shown) VH: EVQLLESGGGLVQPGGSLRLSCAASGFTFSRYTMFWVRQAPGKGLEWVSGIYPSGGKTIYADSVKGRFTISRDNSKNTLYLQMNSLRAEDTAVYYCATGGVFGVVDYWGQGTLVTVSS VL: DIQMTQSPSSLSASVGDRVTITCRASQSINSYLNWYQQKPGKAPNLLIYAASSLQNGVPSRFSGSGSGTDFTLTISSLQPEDFAAYYCQQSYSTPLTFGGGTKVEIKR
33.9 nM | 0.0114 s⁻¹ | 336000 M⁻¹ s⁻¹ | M0124-A01 (Fab, V domains shown) VH: EVQLLESGGGLVQPGGSLRLSCAASGFTFSNYPMYWVRQAPGKGLEWVSRIGPSGGHTDYADSVKGRFTISRDNSKNTLYLQMNSLRAEDTAVYYCARAGVWSGLDYWGQGTLVTVSS VL: DIQMTQSPSSLSASVGDRVTITCRASQSITGYLNWYQQKPGKAPKLLIYAASSLQSGVPSRFSGSGSGTDFTLSISSLQPEDFATYYCQQSYSTPYTFGQGTKLEIKR
30.7 nM | 0.0107 s⁻¹ | 348000 M⁻¹ s⁻¹ | M0114-F04 (Fab, V domains shown) VH: EVQLLESGGGLVQPGGSLRLSCAASGFTFSHYYMAWVRQAPGKGLEWVSYISPSGGSTKYADSVKGRFTISRDNSKNTLYLQMNSLRAEDTAMYYCARGGGTGTFDIWGQGTMVTVSS VL: AQSELTQPASVSGSPGQSIAISCTGTSSDIGAYPFVSWYQQHPGKAPKLLIYGVTTRPFGVSDRFSGSKSGSTASLTISGLQAEDEADYYCSSYAGGRNLPYVFGTGTTVTVLG
30.8 nM | 0.0105 s⁻¹ | 340000 M⁻¹ s⁻¹ | M0102-H02 (Fab, V domains shown) VH: EVQLLESGGGLVQPGGSLRLSCAASGFTFSMYRMFWVRQAPGKGLEWVSVIGPSGGQTAYADSVKGRFTISRDNSKNTLYLQMNSLRAEDTAVYYCARVGVWYGMDVWGQGTTVTVSS VL: DIQMTQSPATLSLSPGERAALSCRASQSVSNFLAWYQQKPGQAPRLLIYGASNRATDIPARFSGSGSGTDFTLTISSLEPEDFATYYCQQANSFPLTFGGGTKVEIKR
33.1 nM | 0.0117 s⁻¹ | 353000 M⁻¹ s⁻¹ | M0097-F08 (Fab, V domains shown) VH: EVQLLESGGGLVQPGGSLRLSCAASGFTFSNYPMVWVRQAPGKGLEWVSVIGPSGGKTKYADSVKGRFTISRDNSKNTLYLQMNSLRAEDTAVYYCARVGVWYGMDVWGQGTTVTVSS VL: DIQMTQSPSTLSASVGDRVTISCRASQGIGTHLNWYQQKLGNVPKLLIYAASGLQSGVPPRFSGSGSGTDFTLTISSLHPEDSATYFCQQSYSVPRTFGQGTKVEIKR
30.9 nM | 0.00663 s⁻¹ | 215000 M⁻¹ s⁻¹ | M0092-G06 (Fab, V domains shown) VH: EVQLLESGGGLVQPGGSLRLSCAASGFTFSHYGMNWVRQAPGKGLEWVSSIWSSGGYTTYADSVKGRFTISRDNSKNTLYLQMNSLRAEDTAVYYCARVGIWYSMDVWGQGTTVTVSS VL: AQSELTQPRSVSGSPGQSVTISCTGTSGEVANYNYVSWYHQDPGLVPKLKIYDVSRRPSGVPDRFSGAKSGDTASLTISGLQAEDEGDYYCASYVGNDKLVFGGGTKLTVLG
33.8 nM | 0.0203 s⁻¹ | 600000 M⁻¹ s⁻¹ | M0107-B05 (Fab, V domains shown) VH: EVQLLESGGGLVQPGGSLRLSCAASGFTFSHYLMMWVRQAPGKGLEWVSSIRSSGGITRYADSVKGRFTISRDNSKNTLYLQMNSLRAEDTAVYYCARVGYYYGMDVWGQGTTVTVSS VL: AQSELTQPASVSGSPGQSITISCTGTSSDVGAYNYVSWYQQHPGKVPKLMIYEVSNRPSGVSNRFSGSKSGNTASLTISGLQAEDEADYYCNSYTTSATLVFGGGTKLTVLS
40.7 nM | 0.00578 s⁻¹ | 142000 M⁻¹ s⁻¹ | M0093-C08 (Fab, V domains shown) VH: EVQLLESGGGLVQPGGSLRLSCAASGFTFSRYPMGWVRQAPGKGLEWVSSIYPSGGSTYYADSVKGRFTISRDNSKNTLYLQMNSLRAEDTAVYYCARVGVWYGMDVWGQGTTVTVSS VL: DIQMTQSPGTLSLSPGERATLSCRASQSVSSSYLAWYQQKPGQAPRLLIFAASTRATGIPDRFSGSGSATDFTLTISSLEPEDFAVYYCQQRSNWPPELTFSGGTKVEIKR
32.4 nM | 0.0436 s⁻¹ | 1.34e+06 M⁻¹ s⁻¹ | M0093-E11 (Fab, V domains shown) VH: EVQLLESGGGLVQPGGSLRLSCAASGFTFSHYEMAWVRQAHGKGLEWVSVIYPSGGATRYADSVKGRFTISRDNSKNTLYLQMNSLRAEDTAVYYCARVAQYYGMDVWGQGTTVTVSS VL: DIQMTQSPATLSLSPGERATLSCRASQSVSSYLAWYQQKPGQAPRLLIYDASNRATGIPARFSGSGSGTDFTLTISSLEPEDFAVYYCQQRSNWLTFGGGTKVEIKR
32.5 nM | 0.126 s⁻¹ | 3.89e+06 M⁻¹ s⁻¹ | M0124-C12 (Fab, V domains shown) VH: EVQLLESGGGLVQPGGSLRLSCAASGFTFSWYTMQWVRQAPGKGLEWVSRIYSSGGGTYYADSVKGRFTISRDNSKNTLYLQMNSLRAEDTAMYYCARVGPWGAFDIWGQGTMVTVSS VL: DIQMTQSPGTLSLSPGERATLSCRASQSVSSNYLAWYQQKPGKAPKLLIYAASSLQSGVPSRFSGSGSGTDFTLTISSLQPEDFATYYCQQRWTFGQGTKVEIKR
29.8 nM | 0.00707 s⁻¹ | 237000 M⁻¹ s⁻¹ | M0094-D08 (Fab, V domains shown) VH: EVQLLESGGGLVQPGGSLRLSCAASGFTFSHYLMVWVRQAPGKGLEWVSGIVPSGGYTMYADSVKGRFTISRDNSKNTLYLQMNSLRAEDTAVYYCTRASYSSFGLDYWGQGTLVTVSS VL: not shown
33 nM | 0.00661 s⁻¹ | 200000 M⁻¹ s⁻¹ | M0136-B06 (Fab, V domains shown) VH: EVQLLESGGGLVQPGGSLRLSCAASGFTFSSYIMIWVRQAPGKGLEWVSYIRPSGGYTKYADSVKGRFTISRDNSKNTLYLQMNSLRAEDTAVYYCARVINAGPGRGYYWRGYSYSDAFDIWGQGTMVTVSS VL: not shown
41.6 nM | 0.0131 s⁻¹ | 314000 M⁻¹ s⁻¹ | M0115-F04 (Fab, V domains shown) VH: EVQLLESGGGLVQPGGSLRLSCAASGFTFSNYLMGWVRQAPGKGLEWVSSIGPSGGYTKYADSVKGRFTISRDNSKNTLYLQMNSLRAEDTAVYYCARGTGTTFFWGQGTLVTVSS VL: AQSALTQPPSVSVSPGQTVSITCSGDDLGGRHVSWFQQLSGQSPVLVIYQDDKRPSGIPERFSGSNSGNTATLTISGTQSVDEGDYYCLAWHNYKYVFGSGTTVTVLR
37 nM | 0.00472 s⁻¹ | 128000 M⁻¹ s⁻¹ | M0131-F12 (Fab, V domains shown) VH: EVQLLESGGGLVQPGGSLRLSCAASGFTFSRYAMGWVRQAPGKGLEWVSYIGPSGGNTTYADSVKGRFTISRDNSKNTLYLQMNSLRAEDTAVYYCARDVGGSGSYYMLSYYYYGMDVWGQGTMVTVSS VL: not shown
29.7 nM | 0.00209 s⁻¹ | 70300 M⁻¹ s⁻¹ | M0131-G06 (Fab, V domains shown) VH: EVQLLESGGGLVQPGGSLRLSCAASGFTFSSYAMTWVRQAPGKGLEWVSSISSSGGDTAYADSVKGRFTISRDNSKNTLYLQMNSLRAEDTAVYYCATERHYIWGSYRYSWFDPWGQGTLVTVSS VL: AQYELTQAPSASGTPGQRVTISCSGSRSNIGTNPVNWYQHVPGTAPKLLILVNNQRPSGVPDRFSGSKSGASASLAISGLQSEDEAEYYCATWDGSLNGPVFGGGTKLTVLR
30.8 nM | 0.00453 s⁻¹ | 147000 M⁻¹ s⁻¹ | M0122-A05 (Fab, V domains shown) VH: EVQLLESGGGLVQPGGSLRLSCAASGFTFSHYPMHWVRQAPGKGLEWVSSIWPSGGHTSYADSVKGRFTISRDNSKNTLYLQMNSLRAEDTATYYCARLSQPIWGQGTLVTVSS VL: DIQMTQSPSSFSASTGDRVTITCRASQSISRWLAWYQQKPGKAPKLLIYEASTLESGVPSTFSGSGSGTEFTLTISSLQPDDFATYYCQQYNSYPLTFGGGTKVEIKR
32.8 nM | 0.0055 s⁻¹ | 168000 M⁻¹ s⁻¹ | M0121-H07 (Fab, V domains shown) VH: EVQLLESGGGLVQPGGSLRLSCAASGFTFSKYYMVWVRQAPGKGLEWVSVIGPSGGWTTYADSVKGRFTISRDNSKNTLYLQMNSLRAEDTAVYYCARVDYSNYFDYWGQGTLVTVSS VL: DIQMTQSPSSLSASVGDRVTITCRASQSISRYLNWYQQKPGKAPKLLIYAASNLQSGVPSRFSGSGSGRDYTLTISSLQPEDFVTYYCQQSYSTPWTFGQGTKVEIKR
